Test: yeast display, Sf9 membrane polyspecificity reagent, FACS + sequencing; frameworks hold sequencing errors
Procedure, shortened: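 Polyreactivity labels are assigned by the sorting gate from which each nanobody was recovered. The gates were low and high (top ~1%), set on anti-HA fluorescence for expression and streptavidin fluorescence for reagent binding. Before sorting, galactose-induced (36–48 hours) yeast display cells were stained for 1 hour at 4 °C with 10% biotinylated, detergent-solubilized Sf9 membrane reagent.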

Sequence | polyreactivity (PSR sort gate)
QVQLVESGGGLVQAGGSLRLSCAASGSIFAINAMGWYRQAPGKERELVARISWSGGRTYYADSVKVRFTISRDNAKNTVYLQMNSLKPEDTAVYYCAKRYYKSLNRDEFDSWGQGTQGTVSS | high polyreactivity
QVQLVESGGGLVQAGGSLRLSCAASGSIFAKNAMGWYRQAPGKERELVAAITFIGGDTYYADSVKGRFTISRDNAKNTVYLQMNSLKPEDTAVFYCNRALLVTSIYPYLFGSGWYDYWGQGTQVTVSS | low polyreactivity
QVQLVESGGGLVQAGGSLRLSCAASGSIFAKNAMGWYRQAPGKERELVAGIDFSGGSTYYADSVKGRFTLSRDNAKNTVYLQMNSLKPEDTAVYYCAADWAYKYELDYWGQGTQLTVSS | low polyreactivity
QVQLVESGGGLVQAGGSLRLSCAASGSIFAKYAMGWYRQAPGKERELVAAISSGGSTYYADSVKGRFTISRDNAKNTVYLQMNSLKPEDTAVYYCNKPYGKETRYTFKVWYEYNYWGQGTQVTVSS | low polyreactivity
QVQLVESGGGLVQAGGSLRLSCAASGSIFANAMGWYRQAPGKEREVVAAISFSGGRTFYADSVKGRFTISRDNAKNTVYLQMNSLKPEDTAVYYCAKGKKSSRSGIYNYWGQGTQVTVSS | high polyreactivity
QVQLVESGGGLVQAGGSLRLSCAASGSIFANNGMGWYRQAPGKERELVARISKRGGSTYYADSVKGRFTFSRDNAKNTVYLQMNSLKPEDTAVYYCNVRSWWGYTGPYDYWGQGTQVTVSS | high polyreactivity
QVQLVESGGGLVQAGGSLRLSCAASGSIFANYAMGWYRQAPGKERELVAAISRGGGTTYYADSVKGRFTISRDNAKNTVYLQMNSLKPEDTAVYYCAAARRYATQFHYDSWGQGTQVTVSS | high polyreactivity
QVQLVESGGGLVQAGGSLRLSCAASGSIFAPYAMGRYRQAPGKERELVAAISTTGGTTYYADSVKGRFTISRDNAKNTVYLQMNSLKPEDTAVYYCAADWSESFGKGGDYWGQGTQVTVSS | low polyreactivity
QVQLVESGGGLVQAGGSLRLSCAASGSIFAPYAMGWYRQAPGKERELVAAISSSGGSTYYADSVKGRFTISRDNAKNTLYLQMNSLKPEDTAVYYCAAETYHGLYDYWGQGTQVTVSS | low polyreactivity
QVQLVESGGGLVQAGGSLRLSCAASGSIFAQYTMGWYRQAPGKERELVAVISINGVSTYYADSVKGRFTISRDNAKNTVYLQMNSLKPEDTAVYYCNAGISPYEALGYWGQGTQVTVSS | low polyreactivity
QVQLVESGGGLVQAGGSLRLSCAASGSIFARNAMGWYRPAPGKERELVAVITTGGRTYYADSVKGRFTISRDNAKNTVYLQMNSLKPEDTAVYYCATRVIYGHSGGYWGQGTQVTVSS | high polyreactivity
QVQLVESGGGLVQAGGSLRLSCAASGSIFARNAMGWYRQAPGKERELVAAITWGGGITYYADSVKGRFTISRDNAKNTVYLQMNSLKPEDTAVYYCATDGYSYFTDRLDYWGQGTQVTVSS | low polyreactivity
QVQLVESGGGLVQAGGSLRLSCAASGSIFARNAMGWYRQAPGKERELVASITWSGASTYYADSVKGRFTISRDNAKNTVYLQMNSLKPADTSFYYSAATDQNLSLDYSSYEYRGQGTQVTVSS | low polyreactivity
QVQLVESGGGLVQAGGSLRLSCAASGSIFARNAMGWYRQAPGKERELVASITWSGASTYYADSVKGRFTISRDNAKNTVYLQMNSLKPEDTAVYYCAATDQKLSLDYSSYEYWGQGTQVTVSS | low polyreactivity
QVQLVESGGGLVQAGGSLRLSCAASGSIFARYAMGWDRQAPGKERELVAAISSRGGSTYYADSVKGRFTISRDNAKNTVYLQMNSLKPADTAVYYCNKGYLVRQGDYWGQGTQVTVSS | high polyreactivity
QVQLVESGGGLVQAGGSLRLSCAASGSIFARYAMGWYRQAPGKERELVAAIDQSAGSTYYADSVKGRFTISRDNAKNTVYLQMNSLKPEDTAVYYCNADYWYWWVITYVGPGLGYWGQGTQVTVSS | high polyreactivity
QVQLVESGGGLVQAGGSLRLSCAASGSIFARYAMGWYRQAPGKERELVAAISSNSASTYYADSVKGRFTISRDNAKNTVYLQMNSLKPEDTAVYYCATAYRSYWLTDYSGQGTQVTVSS | low polyreactivity
QVQLVESGGGLVQAGGSLRLSCAASGSIFARYTMGGYRPAPGKASELVAAISTSGSRTYYADSVKGRFTISRDNAKKTVYLQRYSLKPEDTAVYFCAARNGGRYAPGLDYWGQGTQVTVSS | high polyreactivity
QVQLVESGGGLVQAGGSLRLSCAASGSIFARYTMGWYRQAPGKERELVAAISSSGTSTYYADSVKGRFTISRDNAKNTVYLQMNSLKPEDTAVYYCAADWYYHYGYWGQGTQVTVSS | high polyreactivity
QVQLVESGGGLVQAGGSLRLSCAASGSIFARYVMGWYRQAPGKERELVAAISRGGRTKYADSVKGRFTISRDNAKNTVYLQMNSLKPEDTAVYYCAAEPFNGRTDLDYWGQGTQVTVSS | high polyreactivity
QVQLVESGGGLVQAGGSLRLSCAASGSIFASNAMGWYRQAPGKEREFVAAITWRTDRTYYADSVKGRFTISRDNAKNTVYLQMNSLKPEDNAVYYCAADTWFDRFYYWGQGTQVTVSS | high polyreactivity
QVQLVESGGGLVQAGGSLRLSCAASGSIFASNAMGWYRQAPGKERELVAAINSGDSTNYADSVKGRFTISRDNAKNTVYFQMNSLKPEDTAVYYCARGLEERYDYWGQGTQVTVSS | low polyreactivity

Sequence | polyreactivity (PSR sort gate)
QVQLVESGGGLVQAGGSLRLSCAASGSIFASNAMGWYRQAPGKERELVAAINSGGNTYEDSVKGRFTISRDNAKNTVYLQMNSLKPEDTAVYYCSVVWNWWSGLSPGYPDFDYWGQGTQVTVSS | low polyreactivity
QVQLVESGGGLVQAGGSLRLSCAASGSIFASNTMGWYRQAPGKERELVAGITKIGSSTYYADSVKGRFTISRDNAKNTVYLQMNSLKPEDTAVYYCAAGAWRGPYSGYYYWGQGTQVTVST | low polyreactivity
QVQLVESGGGLVQAGGSLRLSCAASGSIFASYAMGWYRQPPGKERELVAAISIGGTTNYADSVKGRFTISRDNAKNTVYLQMYSLKPEDTAVYYCNAGRWLFNYYYWIYDVRYDYWGQGTQVTVSS | high polyreactivity
QVQLVESGGGLVQAGGSLRLSCAASGSIFASYVMGWSRQAPGKERELVAAISYSDGRTYYADSVKGRFTISRDNAKNTVYLQMNSLKPEDTAVYYCAADRHARLVIGYRRLRYEYWGQGTQVTVSS | low polyreactivity
QVQLVESGGGLVQAGGSLRLSCAASGSIFATNAMGCYRQAPGKERELVAAISRSGASTYYADSVKGRFTISRDNAKHTVYLQMNRLKPEDTAVYYCNKVLYRDAYQSYGFDYWGQGTQVTVSS | high polyreactivity
QVQLVESGGGLVQAGGSLRLSCAASGSIFAVYAMGWYRQAPGKERELVAVITRSGGSTYYADSVKGRFTISRDNAKNTFYLQMNSLKPEDTAVYYCAARTGYGYTRYEYWGQGTQVTVSS | high polyreactivity
QVQLVESGGGLVQAGGSLRLSCAASGSIFAVYAMRCYRQAPAKARELVATITGIDTGTYYADSVKGRCTISRDIAKNTVYLHMNILKPEDTAVYYCAAVCRYRHLRFYYWGQGTQGTVSS | high polyreactivity
QVQLVESGGGLVQAGGSLRLSCAASGSIFAWYAMGWYRPAPGKERELVATITWSGGSTYYADSVKGRVTISRDNAKNTVYLQMNSLKPEDTAVYYCAAEVLGIWYDLWDQGDYGGQGTQVTVSS | low polyreactivity
QVQLVESGGGLVQAGGSLRLSCAASGSIFAWYGMGWYRQAPGKERELVAAISTAGSTNYADSVKGRFTISRDNAKNTVYLQMNSLKPEDTAVYDCAKKSSWYYPERFDYWGQGTQVTVSS | low polyreactivity
QVQLVESGGGLVQAGGSLRLSCAASGSIFAYNAMGWYRQAPGKEREFVAVITRSDDSTYADSVNGRFTISRDNAKNTVSLQMNSLKPEDTAVYYCAALQFVIDGGYRGDYWGQGTQVTVSS | low polyreactivity
QVQLVESGGGLVQAGGSLRLSCAASGSIFAYNAMGWYRQAPGKERELVAAISVGGGRTYYADSVKGRFTISRDNAKNTVYLQMNSLKPEDTAVYYCAASSTAKRYYWGQGTQVTVSS | high polyreactivity
QVQLVESGGGLVQAGGSLRLSCAASGSIFAYYAMGWYRQAPGKERELVAAITRGGRKYYADSVKGRFTISRDNAKNTVYLQMNILKPEYTAVYYCNARNVYFVSPNYDYWGQCTQVTVSS | high polyreactivity
QVQLVESGGGLVQAGGSLRLSCAASGSIFAYYAMGWYRQAPGKERELVAAITWSGGITYYADSVKGRFTISRDNAKNTVYLQMNSLKPEDTAVYYCNADEWPPYEYEYWGQGTQVTVSS | low polyreactivity
QVQLVESGGGLVQAGGSLRLSCAASGSIFCQYVMGWYRQAPGKERVLVAAISWSGPRTYYADSVKGRFTISRDNAKNTVDLQMNSLKPEDTAVYYCAARRLYAGHQYDYWGQGTQVTVSS | high polyreactivity
QVQLVESGGGLVQAGGSLRLSCAASGSIFDAYAMGWYRQAPGKERELVAGITSGGSTNYADSVKGRFTISRDNAKNSVYLQMNSLKPEDTAVYYCAAQCDYANIYLIFNYWGQGTQVTVSS | low polyreactivity
QVQLVESGGGLVQAGGSLRLSCAASGSIFDAYAMGWYRQSPGKERELVAAITTGGGSTYYADSVKGRFTISRDNAKNTVYLQMNSLKPEDTAVYYCAPDYGKYKGYYWGQGTQVTVSS | low polyreactivity
QVQLVESGGGLVQAGGSLRLSCAASGSIFDDFAMGWYRQAPGKERELVAAISWSGGRTYYADSVKGRFTISRDNAKNTVYLHMNSLKPDDTAVYYCAATTGVRSRRYYYWGQGTQVTVSS | low polyreactivity
QVQLVESGGGLVQAGGSLRLSCAASGSIFDDNAMGWYRQAPGKERELVAGISRGGSTNYADSVKGRFTISRDNANNTVYLQMNSLKPEDTAVYYCNKRYKPSWTTYDYWGQGTQVTVSS | low polyreactivity
QVQLVESGGGLVQAGGSLRLSCAASGSIFDDNAMGWYRQAPGKEREMVAAISANDGSTYYADSVKGRFTISRDNAKNTVYLQRNSLNPEDTAVYYCAADVKDYAAQMDSWGQGTQVTVSS | low polyreactivity
QVQLVESGGGLVQAGGSLRLSCAASGSIFDDYAMGWYRQAPGKEREKVAAISWSGGRTYYADSVKGRFTISRDTAKNTVYLQMNSLKPEDTAVYYCAATTGVRSRRYYYWGQGTQVTVSS | high polyreactivity
QVQLVESGGGLVQAGGSLRLSCAASGSIFDDYAMGWYRQAPGKERELVAAISSSGTSTYYADSVKGRFTISRDNAKNTVYLQMNSLKPEDTAGYYCAARSAILKSGYLMDYWGQGTQVTVSS | low polyreactivity
